Where a chain is given by its changes, count along the chain named.
B1: Eculizumab (antibody, human IgG2, kappa, V domains shown)
VH: QVQLVQSGAEVKKPGASVKVSCKASGYIFSNYWIQWVRQAPGQGLEWMGEILPGSGSTEYTENFKDRVTMTRDTSTSTVYMELSSLRSEDTAVYYCARYFFGSSPNWYFDVWGQGTLVTVSS
VL: DIQMTQSPSSLSASVGDRVTITCGASENIYGALNWYQQKPGKAPKLLIYGATNLADGVPSRFSGSGSGTDFTLTISSLQPEDFATYYCQNVLNTPLTFGQGTKVEIKR
B2: humanized antibody 16H46L39am (antibody, human IgG1, kappa, L234A L235A, V domains shown)
VH: QVQLVQSGAEVKKPGASVKVSCKASGYTFTNYGMNWVRQAPGQGLEWMGWINTYTGEPTYADDFKGRFTFTLDTSTSTAYLELSSLRSEDTAVYYCARTKVPLYFAYAMDYWGQGTLVTVSS
VL: DIQLTQSPSSLSASVGDRVTITCKASQSVDYEGDSYLNWYQQKPGKAPKLLIYAASNLESGIPSRFSGSGSGTDFTLTISSLQPEDFATYYCQQSNEDPSTFGGGTKVEIKR
B3: chimeric antibody CHI-16 (antibody, human IgG1, kappa, L234A L235A, V domains shown)
VH: QIQLVQSGPELKKPGETVKISCKASGYTFTNYGMNWVKQAPGKGLKWMGWINTYTGEPTYADDFKGRFAFSLETSASTAYLQINNLKNEDTATYFCTRTKVPLYFAYAMDYWGQGTSVTVSS
VL: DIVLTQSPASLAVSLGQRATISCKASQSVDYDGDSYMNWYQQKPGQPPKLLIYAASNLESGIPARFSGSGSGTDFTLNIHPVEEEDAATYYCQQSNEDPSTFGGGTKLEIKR
B4: humanized antibody 16H1L2m (antibody, human IgG1, kappa, L234A L235A, V domains shown)
VH: B2 VH with A9S, V11L, T69V, T71S, T76V, T78M, E82Q, L83I, R87K, S88A
VL: DIVLTQSPSSLAVSLGERATINCKASQSVDYEGDSYLNWYQQKPGQPPKLLIYAASNLESGIPDRFSGSGSGTDFTLTISSLQAEDVAVYYCQQSNEDPSTFGGGTKVEIKR

Tests used:
[1] = molecular target: T1, C5 of normal human serum (NHS) (human, UniProt P01031 19-1676); assay: cell-based or functional assay
[2] = molecular target: T1, C5 of normal human serum (NHS); assay: cell-based or functional assay; remark: listed apart in the source
human C5 antigen [3] = molecular target: T2, human C5 antigen (human, UniProt P01031 19-673; P01031 678-1676); assay: BLI (ForteBio Octet)
T2 construct: The later ELISAs detect it with an anti-histidine antibody, so it carries a His tag; also called complement component 5

human C5 antigen [4] = molecular target: T2, human C5 antigen; assay: ELISA, antibody coated, human C5 titrated; EC50 is the antigen concentration
Protocol: The wells were blocked with 2.5% skimmed milk dissolved in a phosphate-buffered saline (PBS) for 1 hour, and washed with a PBST solution (a PBS solution containing 20% Tween). Then, 100 μL of the human C5 gradient diluent (the C5 was diluted to 1 ug/ml, followed by 3 X dilution to give 7 gradients, with 100 μL/well) was added into each well, and incubated at room temperature for 1 hr.
EC₅₀ can be used to evaluate the concentration of antigen at the 50% binding capacity of various antibodies to the antigen.

Binder | IC50 (ng/ml), inhibition of classical pathway hemolysis of sheep red blood cells by 1% NHS [1] [ng/mL] | IC50 (ng/ml), classical pathway (CP) hemolysis inhibition [2] [ng/mL] | IC90 (ng/ml), classical pathway (CP) hemolysis inhibition [2] [ng/mL] | Kd (human C5 antigen [3]) [nM] | koff (human C5 antigen [3]) [s⁻¹] | kon (human C5 antigen [3]) [M⁻¹ s⁻¹] | EC50 (human C5 antigen [4]) [µg/mL]
B1 | 401 | 559 | 1340 | – | – | – | –
B2 | – | 330 | 507 | 0.369 | 7.86e-05 | 213000 | 0.169
B3 | 204 | 302 | 500 | – | – | – | –
B4 | – | 347 | 511 | 0.359 | 7.81e-05 | 217000 | 0.117

Reference: patent US20230212272A1 (LONGBIO PHARMA SUZHOU, published 2023)
